System: Escherichia coli TOP10
Test: shrunken log2 fold change of peptide-encoding DNA abundance (4.5 h post-induction vs induction); higher = less antimicrobial activity (less host growth inhibition)
Conditions: time post-induction: 4.5 h; library: site-saturation at positions 5, 18, 19, 20
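Note: peptides expressed intracellularly from a pBAD plasmid library in pooled LB shake-flask culture, induced with 0.3% L-arabinose, DNA abundance read by NGS, three biological replicates, DESeq2 with apeglm shrinkage.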

Sequence | shrunken log2 fold change
RRIRWRPPRLPRPRPRPYKHPRP | -1.24
RRIRTRPPRLPRPRPRPMSRPRP | -0.361
RRIRVRPPRLPRPRPRPKKFPRP | -0.0429
RRIRHRPPRLPRPRPRPKMQPRP | -0.121
RRIRQRPPRLPRPRPRPIRKPRP | -0.0469
RRIRNRPPRLPRPRPRPWFVPRP | -0.429
RRIRGRPPRLPRPRPRPYLEPRP | 0.296
RRIRGRPPRLPRPRPRPYAVPRP | 2.53
RRIRRRPPRLPRPRPRPLVYPRP | -0.325
RRIRIRPPRLPRPRPRPIWVPRP | -0.145
RRIRLRPPRLPRPRPRPLHPPRP | -0.0561
RRIRTRPPRLPRPRPRPLFVPRP | -0.382
RRIRRRPPRLPRPRPRPRFVPRP | 0.375
RRIRARPPRLPRPRPRPIPFPRP | 0.00602
RRIRFRPPRLPRPRPRPYVEPRP | -0.315
RRIRYRPPRLPRPRPRPTWMPRP | 0.0576
RRIRIRPPRLPRPRPRPFESPRP | -0.218
RRIRGRPPRLPRPRPRPFVAPRP | 0.751
RRIRSRPPRLPRPRPRPELIPRP | -0.123
RRIRVRPPRLPRPRPRPSVPPRP | -0.165
RRIRTRPPRLPRPRPRPIRCPRP | 0.0185
RRIRIRPPRLPRPRPRPCMMPRP | -0.654
RRIRYRPPRLPRPRPRPFYMPRP | -0.258
RRIRGRPPRLPRPRPRPQDLPRP | -0.00287
RRIRIRPPRLPRPRPRPKHWPRP | 0.357

Sequence | shrunken log2 fold change
RRIRRRPPRLPRPRPRPSMSPRP | 0.0591
RRIRGRPPRLPRPRPRPIMGPRP | 0.0308
RRIRTRPPRLPRPRPRPHIKPRP | -0.616
RRIRFRPPRLPRPRPRPVWNPRP | -0.0763
RRIRWRPPRLPRPRPRPYEQPRP | -0.398
RRIRQRPPRLPRPRPRPQPKPRP | 0.0658
RRIRIRPPRLPRPRPRPENCPRP | -0.00941
RRIRCRPPRLPRPRPRPAFDPRP | 0.253
RRIRMRPPRLPRPRPRPFLAPRP | 0.0298
RRIRARPPRLPRPRPRPWDLPRP | 0.612
RRIRHRPPRLPRPRPRPIKSPRP | -0.0206
RRIRGRPPRLPRPRPRPMNPPRP | 0.217
RRIRIRPPRLPRPRPRPWNGPRP | -0.172
RRIRRRPPRLPRPRPRPEWMPRP | 0.126
RRIRDRPPRLPRPRPRPNQTPRP | 0.0331
RRIRDRPPRLPRPRPRPMITPRP | -0.115
RRIRYRPPRLPRPRPRPEYVPRP | -0.0327
RRIRGRPPRLPRPRPRPNQLPRP | 0.0782
RRIRVRPPRLPRPRPRPLLCPRP | -0.642
RRIRARPPRLPRPRPRPKAYPRP | 0.088
RRIRYRPPRLPRPRPRPYQIPRP | -0.659
RRIRERPPRLPRPRPRPGDPPRP | 0.103
RRIRKRPPRLPRPRPRPAQIPRP | 0.342
RRIRHRPPRLPRPRPRPAGIPRP | -0.282
RRIRGRPPRLPRPRPRPKPRPRP | 1.16

Sequence | shrunken log2 fold change
RRIRIRPPRLPRPRPRPMVIPRP | -0.154
RRIRCRPPRLPRPRPRPYNPPRP | -1.15
RRIRDRPPRLPRPRPRPAGRPRP | 0.632
RRIRFRPPRLPRPRPRPFRAPRP | 0.0466
RRIRWRPPRLPRPRPRPWQSPRP | 0.0143
RRIRIRPPRLPRPRPRPDQIPRP | -0.0795
RRIRIRPPRLPRPRPRPDIKPRP | -0.576
RRIRRRPPRLPRPRPRPGDHPRP | 0.0619
RRIRGRPPRLPRPRPRPWFPPRP | -0.132
RRIRFRPPRLPRPRPRPGCTPRP | -0.116
RRIRLRPPRLPRPRPRPPKAPRP | 0.025
RRIRSRPPRLPRPRPRPCFQPRP | -0.0966
RRIRCRPPRLPRPRPRPIARPRP | 0.19
RRIRSRPPRLPRPRPRPSQQPRP | 0.0577
RRIRPRPPRLPRPRPRPFGQPRP | -0.34
RRIRHRPPRLPRPRPRPGDMPRP | -0.157
RRIRLRPPRLPRPRPRPWYRPRP | -0.3
RRIRYRPPRLPRPRPRPLWNPRP | -0.471
RRIRRRPPRLPRPRPRPNVAPRP | 0.304
RRIRRRPPRLPRPRPRPRYEPRP | 0.0341
RRIRFRPPRLPRPRPRPPVKPRP | -0.00563
RRIRDRPPRLPRPRPRPPNKPRP | 0.0523
RRIRPRPPRLPRPRPRPGKMPRP | 0.0379
RRIRWRPPRLPRPRPRPVRKPRP | 0.167
RRIRDRPPRLPRPRPRPNRTPRP | -0.477

Sequence | shrunken log2 fold change
RRIRTRPPRLPRPRPRPDHGPRP | -0.0102
RRIRCRPPRLPRPRPRPHWCPRP | -0.155
RRIRWRPPRLPRPRPRPDPCPRP | -0.026
RRIRGRPPRLPRPRPRPHCRPRP | 0.376
RRIRMRPPRLPRPRPRPDCPPRP | 0.0739
RRIRHRPPRLPRPRPRPKHGPRP | 0.109
RRIRKRPPRLPRPRPRPYRDPRP | -0.0176
RRIRSRPPRLPRPRPRPSWVPRP | 0.0183
RRIRARPPRLPRPRPRPYVAPRP | -0.35
RRIRCRPPRLPRPRPRPDAHPRP | -0.0835
RRIRYRPPRLPRPRPRPWMWPRP | 0.0261
RRIRNRPPRLPRPRPRPLWLPRP | -0.181
RRIRIRPPRLPRPRPRPRYRPRP | -0.386
RRIRDRPPRLPRPRPRPTSYPRP | -0.189
RRIRQRPPRLPRPRPRPMPDPRP | -0.0292
RRIRYRPPRLPRPRPRPTCHPRP | -1.16
RRIRWRPPRLPRPRPRPKRHPRP | 0.467
RRIRSRPPRLPRPRPRPTWEPRP | 0.187
RRIRCRPPRLPRPRPRPQWTPRP | -0.205
RRIRWRPPRLPRPRPRPKCHPRP | 0.206
RRIRIRPPRLPRPRPRPDYSPRP | -1.21
RRIRDRPPRLPRPRPRPIAVPRP | -0.00168
RRIRYRPPRLPRPRPRPDNKPRP | -0.609
RRIRWRPPRLPRPRPRPYFPPRP | -0.282
RRIRKRPPRLPRPRPRPGIFPRP | 0.409

Sequence | shrunken log2 fold change
RRIRCRPPRLPRPRPRPESHPRP | 0.0129
RRIRQRPPRLPRPRPRPAYDPRP | -0.0146
RRIRDRPPRLPRPRPRPHQSPRP | 0.0679
RRIRKRPPRLPRPRPRPGAWPRP | 0.364
RRIRFRPPRLPRPRPRPCDEPRP | 0.112
RRIRCRPPRLPRPRPRPMMKPRP | -0.231
RRIRPRPPRLPRPRPRPTNTPRP | -0.375
RRIRIRPPRLPRPRPRPDLWPRP | 0.078
RRIRHRPPRLPRPRPRPRMKPRP | -0.223
RRIRWRPPRLPRPRPRPRCFPRP | 0.398
RRIRQRPPRLPRPRPRPLRTPRP | 0.691
RRIRFRPPRLPRPRPRPSMSPRP | -0.394
RRIRDRPPRLPRPRPRPSWIPRP | -0.454
RRIRERPPRLPRPRPRPHPAPRP | 0.039
RRIRTRPPRLPRPRPRPKVCPRP | -0.00594
RRIRERPPRLPRPRPRPHLQPRP | -0.206
RRIRHRPPRLPRPRPRPNFTPRP | -0.104
RRIRPRPPRLPRPRPRPVNIPRP | -0.226
RRIRFRPPRLPRPRPRPDRIPRP | 0.0156
RRIRNRPPRLPRPRPRPEAKPRP | 0.302
RRIRNRPPRLPRPRPRPCRIPRP | -0.134
RRIRARPPRLPRPRPRPVPYPRP | -0.0718
RRIRGRPPRLPRPRPRPVQMPRP | 0.844
RRIRARPPRLPRPRPRPVECPRP | 0.0527
RRIRDRPPRLPRPRPRPYYNPRP | -1.01
